Measured values as given in patent US20170000857A1.

Target: ALMS1 (Alstrom syndrome protein 1) (human) (UniProt Q8TCU4)
Test: cell-based or functional assay

UniProt Q8TCU4, sequence (Q8TCU4 other isoform, or with tags, fused parts or gaps limits assumed): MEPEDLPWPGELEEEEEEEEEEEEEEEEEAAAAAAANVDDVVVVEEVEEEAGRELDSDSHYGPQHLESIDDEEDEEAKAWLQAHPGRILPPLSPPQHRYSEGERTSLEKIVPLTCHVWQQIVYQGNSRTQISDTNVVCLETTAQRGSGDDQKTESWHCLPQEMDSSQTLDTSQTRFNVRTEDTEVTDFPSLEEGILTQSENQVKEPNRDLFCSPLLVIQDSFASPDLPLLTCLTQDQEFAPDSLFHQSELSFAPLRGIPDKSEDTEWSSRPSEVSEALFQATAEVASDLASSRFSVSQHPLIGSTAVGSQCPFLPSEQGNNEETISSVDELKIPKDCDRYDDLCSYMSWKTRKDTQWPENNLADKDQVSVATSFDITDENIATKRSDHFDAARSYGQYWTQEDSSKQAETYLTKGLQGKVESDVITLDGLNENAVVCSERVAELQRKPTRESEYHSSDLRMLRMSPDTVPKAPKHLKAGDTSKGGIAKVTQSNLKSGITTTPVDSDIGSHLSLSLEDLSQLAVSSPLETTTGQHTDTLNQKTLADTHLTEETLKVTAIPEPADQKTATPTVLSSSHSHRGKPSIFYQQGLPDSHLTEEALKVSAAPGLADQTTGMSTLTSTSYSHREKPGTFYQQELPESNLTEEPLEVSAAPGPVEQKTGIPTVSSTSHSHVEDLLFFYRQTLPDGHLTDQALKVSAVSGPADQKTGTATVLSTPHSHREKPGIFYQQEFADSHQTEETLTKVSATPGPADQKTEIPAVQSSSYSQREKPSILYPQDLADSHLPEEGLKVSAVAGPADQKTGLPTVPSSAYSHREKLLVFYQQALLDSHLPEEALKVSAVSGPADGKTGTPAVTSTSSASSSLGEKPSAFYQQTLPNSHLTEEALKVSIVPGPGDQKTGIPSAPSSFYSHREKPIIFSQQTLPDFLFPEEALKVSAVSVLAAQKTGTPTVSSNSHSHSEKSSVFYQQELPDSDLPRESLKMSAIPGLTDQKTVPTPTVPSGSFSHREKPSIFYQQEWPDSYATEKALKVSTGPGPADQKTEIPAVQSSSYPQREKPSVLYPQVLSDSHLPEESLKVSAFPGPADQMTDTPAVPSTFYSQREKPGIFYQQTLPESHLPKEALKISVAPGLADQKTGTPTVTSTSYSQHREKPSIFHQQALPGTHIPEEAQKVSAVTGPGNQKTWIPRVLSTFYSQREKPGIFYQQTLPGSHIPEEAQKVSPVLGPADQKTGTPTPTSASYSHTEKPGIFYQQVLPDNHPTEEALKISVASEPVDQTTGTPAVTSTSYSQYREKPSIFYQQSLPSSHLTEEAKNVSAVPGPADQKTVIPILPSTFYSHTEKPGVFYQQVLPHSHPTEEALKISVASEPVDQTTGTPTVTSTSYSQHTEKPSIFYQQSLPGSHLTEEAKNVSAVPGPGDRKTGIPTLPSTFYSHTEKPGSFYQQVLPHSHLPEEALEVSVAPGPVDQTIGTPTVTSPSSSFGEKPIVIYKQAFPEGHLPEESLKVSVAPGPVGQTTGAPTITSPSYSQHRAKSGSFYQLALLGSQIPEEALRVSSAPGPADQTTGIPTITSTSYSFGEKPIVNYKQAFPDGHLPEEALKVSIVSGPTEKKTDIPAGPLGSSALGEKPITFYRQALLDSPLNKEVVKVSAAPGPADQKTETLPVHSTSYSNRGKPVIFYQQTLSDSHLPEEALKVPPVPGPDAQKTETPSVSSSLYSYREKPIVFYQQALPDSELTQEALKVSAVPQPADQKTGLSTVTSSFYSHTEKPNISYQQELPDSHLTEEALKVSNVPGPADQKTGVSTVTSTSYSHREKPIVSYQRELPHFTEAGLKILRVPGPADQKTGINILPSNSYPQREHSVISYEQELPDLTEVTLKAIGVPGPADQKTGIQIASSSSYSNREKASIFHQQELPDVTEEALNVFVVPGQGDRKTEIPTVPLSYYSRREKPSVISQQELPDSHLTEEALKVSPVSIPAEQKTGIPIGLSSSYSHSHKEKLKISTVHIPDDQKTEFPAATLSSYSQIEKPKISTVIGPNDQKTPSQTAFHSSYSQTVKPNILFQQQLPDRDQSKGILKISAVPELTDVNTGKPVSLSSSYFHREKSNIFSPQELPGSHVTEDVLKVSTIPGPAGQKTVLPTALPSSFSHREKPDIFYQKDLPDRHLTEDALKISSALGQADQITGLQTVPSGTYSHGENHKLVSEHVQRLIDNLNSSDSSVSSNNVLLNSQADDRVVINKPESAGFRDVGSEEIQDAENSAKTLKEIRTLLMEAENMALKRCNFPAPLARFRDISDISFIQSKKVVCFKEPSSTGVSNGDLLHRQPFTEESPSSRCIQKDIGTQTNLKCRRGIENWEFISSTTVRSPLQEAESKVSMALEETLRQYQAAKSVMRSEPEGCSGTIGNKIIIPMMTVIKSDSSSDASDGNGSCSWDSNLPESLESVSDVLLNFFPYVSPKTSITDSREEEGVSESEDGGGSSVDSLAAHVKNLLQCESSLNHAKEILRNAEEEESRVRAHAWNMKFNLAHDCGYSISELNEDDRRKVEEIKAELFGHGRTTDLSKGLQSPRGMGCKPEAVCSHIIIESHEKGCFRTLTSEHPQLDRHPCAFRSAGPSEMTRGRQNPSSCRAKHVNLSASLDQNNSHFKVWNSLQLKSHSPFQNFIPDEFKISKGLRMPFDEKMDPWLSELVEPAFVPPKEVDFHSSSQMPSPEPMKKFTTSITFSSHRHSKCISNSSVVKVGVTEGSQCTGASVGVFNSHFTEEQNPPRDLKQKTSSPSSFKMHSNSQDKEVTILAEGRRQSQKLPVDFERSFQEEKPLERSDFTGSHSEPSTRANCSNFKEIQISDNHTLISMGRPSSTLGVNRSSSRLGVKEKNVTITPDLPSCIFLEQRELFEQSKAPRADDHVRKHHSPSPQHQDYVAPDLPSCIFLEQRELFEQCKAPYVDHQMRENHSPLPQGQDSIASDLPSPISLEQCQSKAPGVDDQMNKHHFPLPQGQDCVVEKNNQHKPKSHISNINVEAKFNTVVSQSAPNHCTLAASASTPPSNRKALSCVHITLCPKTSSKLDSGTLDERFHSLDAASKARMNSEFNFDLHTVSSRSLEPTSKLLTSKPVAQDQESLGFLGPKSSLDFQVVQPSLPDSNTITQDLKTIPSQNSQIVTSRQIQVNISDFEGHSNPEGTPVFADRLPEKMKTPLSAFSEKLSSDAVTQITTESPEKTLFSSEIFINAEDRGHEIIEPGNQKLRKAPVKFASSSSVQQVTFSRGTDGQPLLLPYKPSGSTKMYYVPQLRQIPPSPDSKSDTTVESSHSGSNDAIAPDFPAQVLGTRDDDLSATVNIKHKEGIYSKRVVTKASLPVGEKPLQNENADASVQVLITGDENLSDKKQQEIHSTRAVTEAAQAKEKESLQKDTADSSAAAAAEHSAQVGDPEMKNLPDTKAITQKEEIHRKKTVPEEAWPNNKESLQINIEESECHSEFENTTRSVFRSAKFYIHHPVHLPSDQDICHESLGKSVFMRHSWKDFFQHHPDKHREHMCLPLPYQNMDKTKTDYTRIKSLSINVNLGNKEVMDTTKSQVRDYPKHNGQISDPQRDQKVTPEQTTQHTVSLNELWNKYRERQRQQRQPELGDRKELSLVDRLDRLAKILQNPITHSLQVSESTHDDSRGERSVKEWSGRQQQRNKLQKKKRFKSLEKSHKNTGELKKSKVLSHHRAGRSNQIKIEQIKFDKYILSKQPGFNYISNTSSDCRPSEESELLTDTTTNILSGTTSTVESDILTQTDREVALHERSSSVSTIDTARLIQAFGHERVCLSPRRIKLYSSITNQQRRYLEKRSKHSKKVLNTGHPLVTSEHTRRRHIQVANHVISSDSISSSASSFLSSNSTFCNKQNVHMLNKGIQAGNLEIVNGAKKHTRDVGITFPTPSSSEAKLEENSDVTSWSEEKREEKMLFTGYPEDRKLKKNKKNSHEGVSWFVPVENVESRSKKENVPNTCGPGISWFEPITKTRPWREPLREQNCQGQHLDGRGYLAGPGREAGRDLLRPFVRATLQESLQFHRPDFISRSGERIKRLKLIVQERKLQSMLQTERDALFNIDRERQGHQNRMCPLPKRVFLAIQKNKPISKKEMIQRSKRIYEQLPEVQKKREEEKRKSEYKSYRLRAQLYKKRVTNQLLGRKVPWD

For “min-αPKC-FLAG (ALMS1-interacting domain of human PKCα with N-terminal FLAG tag) (from UniProt P05696 336-672)”, the 2-NBDG absorption in mature adipocytes in absence of INS (times (vs control)) was 3.5.
